Data: patent US6759384 (AVENTIS PHARMACEUTICALS, dated 2004)
Starred links: 1 amine or outer side, 2 acyl side, 3 side chain; linkers in the order of their positions; H or OH if unused. Positions of bridges follow the written chain, without caps; N, C: chain ends. Non-standard residues stand in square brackets, D forms with d. Primed or numbered codes have the meaning given here. No end group written: not given here. *: point of attachment. Dab(Nγ-C3H7N)″ = 2,4-diaminobutyric acid with dimethylamidinium (N,N-dimethylformamidinium) on gamma-N, C[N+](C)=CNCC[C@H](N[*:1])C(=O)[*:2]; Dab(Nγ-C3H7N) = Dab bearing Nγ-dimethylamidinium (C3H7N), C[N+](C)=CNCC[C@H](N[*:1])C(=O)[*:2]; (iBu)Tyr = N-isobutyl-L-tyrosine, CC(C)CN([C@@H](Cc1ccc(O[*:3])cc1)C(=O)[*:2])[*:1]; Tyr(Me)″ = O-methyl-tyrosine (source: Y(Me)), COc1ccc(C[C@H](N[*:1])C(=O)[*:2])cc1; Thr(Me) = O-methyl-threonine (source: T(Me)), CO[C@H](C)[C@H](N[*:1])C(=O)[*:2]; Cys(Me) = S-methylcysteine (source: C(Me)), CSC[C@H](N[*:1])C(=O)[*:2]; Pen(Me) = S-methyl-penicillamine, CSC(C)(C)[C@H](N[*:1])C(=O)[*:2]; Tyr(Me) = O-methyltyrosine, COc1ccc(C[C@H](N[*:1])C(=O)[*:2])cc1; Orn(Nδ-C3H7N) = ornithine with dimethylamidinium on delta-N; Phe(4-NO2) = N[C@@H](Cc1ccc([N+](=O)[O-])cc1)C(=O)O; Phe(4-CONH2) = NC(=O)c1ccc(C[C@H](N)C(=O)O)cc1; Phe(4-NH2) = Nc1ccc(C[C@H](N)C(=O)O)cc1; Phe(4-F) = N[C@@H](Cc1ccc(F)cc1)C(=O)O; 2Nal = N[C@@H](Cc1ccc2ccccc2c1)C(=O)O; NMeY = CN[C@@H](Cc1ccc(O)cc1)C(=O)O; dNMeY = CN[C@H](Cc1ccc(O)cc1)C(=O)O; hArg = N=C(N)NCCCC[C@H](N)C(=O)O; Cha = N[C@@H](CC1CCCCC1)C(=O)O; Agb = N=C(N)NCC[C@H](N)C(=O)O; Chg = N[C@H](C(=O)O)C1CCCCC1; Phg = N[C@H](C(=O)O)c1ccccc1; Pth = not defined here; pal = not defined here; Tfa = O=C(C(F)(F)F)*; Isobutyl = CC(C)C*; βAla = NCCC(=O)O; tBu = CC(C)(C)*

Molecular target: human factor Xa (Enzyme Research Laboratories, Inc.) (human, UniProt P00742 41-179; P00742 235-488, limits assumed)
Sequence (P00742 41-179 limits assumed, chain 1 of 2): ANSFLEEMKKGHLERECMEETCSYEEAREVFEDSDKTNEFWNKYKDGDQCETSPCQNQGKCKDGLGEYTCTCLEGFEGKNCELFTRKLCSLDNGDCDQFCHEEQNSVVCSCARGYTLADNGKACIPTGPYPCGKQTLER
Sequence (P00742 235-488 limits assumed, chain 2 of 2): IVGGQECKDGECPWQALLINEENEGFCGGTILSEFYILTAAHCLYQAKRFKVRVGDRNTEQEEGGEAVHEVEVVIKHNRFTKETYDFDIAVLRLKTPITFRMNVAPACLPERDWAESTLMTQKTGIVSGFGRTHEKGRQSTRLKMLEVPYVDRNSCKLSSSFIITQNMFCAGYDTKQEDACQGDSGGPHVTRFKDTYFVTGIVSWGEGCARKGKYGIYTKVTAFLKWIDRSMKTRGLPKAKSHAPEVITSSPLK
Assay: chromogenic FXa inhibition
Procedure: TBS-P buffer (50 mM Tris-Cl, pH 7.8, 200 mM NaCl, 0.05% (w/v) PEG-8000, 0.02% (w/v) NaN_3) was used for this assay. The IC$50$ was determined by combining in appropriate wells of a Costar half-area microtiter plate 25 μl human factor Xa (Enzyme Research Laboratories, Inc.; South Bend Ind.) in TBS-P; 40 μl 10% (v/v) DMSO in TBS-P (uninhibited control) or various concentrations of a peptide to be tested diluted in 10% (v/v) DMSO in TBS-P; and substrate S-2765 (Nα-benzyloxycarbonyl-D-Arg-Gly-L-Arg-p-nitroanilide; Kabi Pharmacia, Inc.; Franklin Ohio) in TBS-P.
The assays were performed by pre-incubating the peptide inhibitor plus enzyme for 10 min, then the assay was initiated by adding substrate to obtain a final volume of 100 μl. The initial velocity of chromogenic substrate hydrolysis was measured by the change in absorbance at 405 nm using a Bio-tek Instruments kinetic plate reader (Ceres UV900HDi) at 25° C. during the linear portion of the time course (usually 1–5 min after addition of substrate). The concentration of inhibitor that caused a 50% decrease in the rate of substrate hydrolysis was predicted by linear regression after plotting the relative rates of hydrolysis (compared to the uninhibited control) versus the log of the peptide concentration. The enzyme concentration was 0.5 nM and substrate concentration was 140 μM.

| Binder | Ki |
| --- | --- |
| Ac-[NMeY][Chg]RLP-NH2 [Ac-(Me)Y-Chg-R-L-P-NH2] | < 100 µM |
| Ac-[(iBu)Tyr][Chg]RLP-NH2 [Ac-(iBu)Y-Chg-R-L-P-NH2] | < 100 µM |
| YXRLP (N-term Ac; residue 2 = allo-Ile; C-term NH2) [Ac-Y-(allo-I)-R-L-P-NH2] | < 100 µM |
| Ac-Y[Cha]RLP-NH2 [Ac-Y-Cha-R-L-P-NH2] | < 100 µM |
| Ac-Y[Pen(Me)]RLP-NH2 [Ac-Y-Pen(Me)-R-L-P-NH2] | < 100 µM |
| Ac-Y[Phg]RLP-NH2 [Ac-Y-Pgl-R-L-P-NH2] | < 100 µM |
| Ac-Y[Thr(Me)]RLP-NH2 [Ac-Y-T(Me)-R-L-P-NH2] | < 100 µM |
| Ac-[(iBu)Tyr]I[Dab(Nγ-C3H7N)″]LP-NH2 [Ac-(iBu)Y-I-Dab(N^γ-C3H7N)-L-P-NH2] | < 100 µM |
| Ac-YI[Dab(Nγ-C3H7N)]LA-NH2 (SMILES CC[C@H](C)[C@H](NC(=O)[C@H](Cc1ccc(O)cc1)NC(C)=O)C(=O)N[C@@H](CCNC=[N+](C)C)C(=O)N[C@@H](CC(C)C)C(=O)N[C@@H](C)C(N)=O) [Ac-Y-I-Dab(N^γC3H7N)-L-A-NH2] | < 100 µM |
| Ac-YI[hArg]LA-NH2 (SMILES CC[C@H](C)[C@H](NC(=O)[C@H](Cc1ccc(O)cc1)NC(C)=O)C(=O)N[C@@H](CCCCNC(=N)N)C(=O)N[C@@H](CC(C)C)C(=O)N[C@@H](C)C(N)=O) [Ac-Y-I-hR-L-A-NH2] | < 100 µM |
| Ac-YI[Agb]LA-NH2 (SMILES CC[C@H](C)[C@H](NC(=O)[C@H](Cc1ccc(O)cc1)NC(C)=O)C(=O)N[C@@H](CCNC(=N)N)C(=O)N[C@@H](CC(C)C)C(=O)N[C@@H](C)C(N)=O) [Ac-Y-I-nR-L-A-NH2] | < 100 µM |
| [dY]I[Agb]LA-NH2 (N-terminus assumed; SMILES CC[C@H](C)[C@H](NC(=O)[C@H](N)Cc1ccc(O)cc1)C(=O)N[C@@H](CCNC(=N)N)C(=O)N[C@@H](CC(C)C)C(=O)N[C@@H](C)C(N)=O) [y-I-(nR)-L-A-NH2] | < 100 µM |
| Ac-[(iBu)Tyr]I[Orn(Nδ-C3H7N)]LP-NH2 [Ac-(iBu)Y-I-Orn(N^δ-C3H7N)-L-P-NH2] | < 100 µM |
| Isobutyl-YIRLA-NH2 [(iBu)Y-I-R-L-A-NH2] | < 100 µM |
| Ac-[NMeY]IRLA-NH2 (SMILES CC[C@H](C)[C@H](NC(=O)[C@H](Cc1ccc(O)cc1)N(C)C(C)=O)C(=O)N[C@@H](CCCNC(=N)N)C(=O)N[C@@H](CC(C)C)C(=O)N[C@@H](C)C(N)=O) [Ac-(Me)Y-I-R-L-A-NH2] | < 100 µM |
| Ac-[Tyr(Me)″]IRLA-NH2 (SMILES CC[C@H](C)[C@H](NC(=O)[C@H](Cc1ccc(OC)cc1)NC(C)=O)C(=O)N[C@@H](CCCNC(=N)N)C(=O)N[C@@H](CC(C)C)C(=O)N[C@@H](C)C(N)=O) [Ac-Y(Me)-I-R-L-A-NH2] | < 100 µM |
| [Phe(4-NH2)]IRLA-NH2 (N-terminus assumed; SMILES CC[C@H](C)[C@H](NC(=O)[C@@H](N)Cc1ccc(N)cc1)C(=O)N[C@@H](CCCNC(=N)N)C(=O)N[C@@H](CC(C)C)C(=O)N[C@@H](C)C(N)=O) [F(pNH2)-I-R-L-A-NH2] | < 100 µM |
| [Phe(4-NO2)]IRLA-NH2 (N-terminus assumed; SMILES CC[C@H](C)[C@H](NC(=O)[C@@H](N)Cc1ccc([N+](=O)[O-])cc1)C(=O)N[C@@H](CCCNC(=N)N)C(=O)N[C@@H](CC(C)C)C(=O)N[C@@H](C)C(N)=O) [F(pNO2)-I-R-L-A-NH2] | < 100 µM |
| [2Nal]IR[Cys(Me)]P-NH2 (N-terminus assumed; SMILES CC[C@H](C)[C@H](NC(=O)[C@@H](N)Cc1ccc2ccccc2c1)C(=O)N[C@@H](CCCNC(=N)N)C(=O)N[C@@H](CSC)C(=O)N1CCC[C@H]1C(N)=O) [Nal(2)-I-R-C(Me)-P-NH2] | < 100 µM |

| Binder | Ki |
| --- | --- |
| Tfa-[NMeY]IRLA-NH2 (SMILES CC[C@H](C)[C@H](NC(=O)[C@H](Cc1ccc(O)cc1)N(C)C(=O)C(F)(F)F)C(=O)N[C@@H](CCCNC(=N)N)C(=O)N[C@@H](CC(C)C)C(=O)N[C@@H](C)C(N)=O) [Tfa-(Me)Y-I-R-L-A-NH2] | < 100 µM |
| [Tyr(Me)]IRLA-NH2 (N-terminus assumed; SMILES CC[C@H](C)[C@H](NC(=O)[C@@H](N)Cc1ccc(OC)cc1)C(=O)N[C@@H](CCCNC(=N)N)C(=O)N[C@@H](CC(C)C)C(=O)N[C@@H](C)C(N)=O) [Tyr(Me)-I-R-L-A-NH2] | < 100 µM |
| [pal]C(tBu)RLP-NH2 (reading uncertain; also: pyridylalanine ring position not given here, printed as pal-C(SBut)-R—L—P—NH2) [pal-C(SBut)-R-L-P-NH2] | < 100 µM |
| [pal]IRC(tBu)P-NH2 (reading uncertain; also: pyridylalanine ring position not given here, printed as pal-I-R-C(SBut)-P-NH2) [pal-I-R-C(SBut)-P-NH2] | < 100 µM |
| XIRLP (N-term Ac; N-(Me) on Y1; C-term NH2) [Ac-(Me)Y-I-R-L-P-NH2] | < 100 µM |
| XIRLP (N-term Ac; N-(trans-CH3-CH═C(CH3)-CH2) on Y1; C-term NH2) [Ac-(trans-CH3-CH═C(CH3)-CH2)Y-I-R-L-P-NH2] | < 100 µM |
| XIRLP (N-term Ac; Y1=Tyr(3,5-NO2); C-term NH2) [Ac-Tyr(3,5-NO2)-I-R-L-P-NH2] | < 100 µM |
| Ac-[βAla]YIRLG-NH2 (SMILES CC[C@H](C)[C@H](NC(=O)[C@H](Cc1ccc(O)cc1)NC(=O)CCNC(C)=O)C(=O)N[C@@H](CCCNC(=N)N)C(=O)N[C@@H](CC(C)C)C(=O)NCC(N)=O) [Ac-βAla-Y-I-R-L-G-NH2] | < 100 µM |
| Pth-YIRLP-NH2 (reading uncertain; also: printed as Pth-Y-I-R-L-P-NH2) [Pth-Y-I-R-L-P-NH2] | < 100 µM |
| Ac-EYIRLK-NH2 (lactam 1-6; SMILES CC[C@H](C)[C@@H]1NC(=O)[C@H](Cc2ccc(O)cc2)NC(=O)[C@@H](NC(C)=O)CCC(=O)NCCCC[C@@H](C(N)=O)NC(=O)[C@H](CC(C)C)NC(=O)[C@H](CCCNC(=N)N)NC1=O, underlining that marks the cyclized portion is lost in the text) [Ac-E-Y-I-R-L-K-NH2**] | < 100 µM |
| Ac-EYIRLPK-NH2 (also: cyclisation unknown (underlining lost), may be cyclic; underlining lost) [Ac-E-Y-I-R-L-P-K-NH2] | < 100 µM |
| Ac-[Phe(4-CONH2)]IRLP-NH2 (SMILES CC[C@H](C)[C@H](NC(=O)[C@H](Cc1ccc(C(N)=O)cc1)NC(C)=O)C(=O)N[C@@H](CCCNC(=N)N)C(=O)N[C@@H](CC(C)C)C(=O)N1CCC[C@H]1C(N)=O) [Ac-F(pCONH2)-I-R-L-P-NH2] | < 100 µM |
| Ac-[Phe(4-F)]IRLP-NH2 (SMILES CC[C@H](C)[C@H](NC(=O)[C@H](Cc1ccc(F)cc1)NC(C)=O)C(=O)N[C@@H](CCCNC(=N)N)C(=O)N[C@@H](CC(C)C)C(=O)N1CCC[C@H]1C(N)=O) [Ac-F(pF)-I-R-L-P-NH2] | < 100 µM |
| Ac-YIRLP-NH2 [Ac-Y-I-R-L-P-NH2] | < 100 µM |
| [dNMeY]IRLA-NH2 (N-terminus assumed; SMILES CC[C@H](C)[C@H](NC(=O)[C@@H](Cc1ccc(O)cc1)NC)C(=O)N[C@@H](CCCNC(=N)N)C(=O)N[C@@H](CC(C)C)C(=O)N[C@@H](C)C(N)=O) [(Me)y-I-R-L-A-NH2] | < 100 µM |
| Ac-YIRIP [Ac-Y-I-R-I-P] | < 100 µM |
| Ac-YIRLA (printed without -NH2) [Ac-Y-I-R-L-A] | < 100 µM |
| Ac-YIRGP-NH2 (also: pseudo peptide bond ψ(COCH2) between R3 and G4) [Ac-Y-I-R-{ψ(COCH2)}-G-P-NH2] | < 100 µM |
| Ac-YNRLP-NH2 [Ac-Y-N-R-L-P-NH2] | < 100 µM |
